The results in this text go back to patent US20050025760A1 (KEIO UNIVERSITY, published 2005).

Assay [1] addresses T1, recombinant protein human Dsg1-His (human, UniProt Q02413 50-548).
T1 construct: extracellular domain; Baculovirus product; not shown: C-terminal His tag
T1 sequence (looked up): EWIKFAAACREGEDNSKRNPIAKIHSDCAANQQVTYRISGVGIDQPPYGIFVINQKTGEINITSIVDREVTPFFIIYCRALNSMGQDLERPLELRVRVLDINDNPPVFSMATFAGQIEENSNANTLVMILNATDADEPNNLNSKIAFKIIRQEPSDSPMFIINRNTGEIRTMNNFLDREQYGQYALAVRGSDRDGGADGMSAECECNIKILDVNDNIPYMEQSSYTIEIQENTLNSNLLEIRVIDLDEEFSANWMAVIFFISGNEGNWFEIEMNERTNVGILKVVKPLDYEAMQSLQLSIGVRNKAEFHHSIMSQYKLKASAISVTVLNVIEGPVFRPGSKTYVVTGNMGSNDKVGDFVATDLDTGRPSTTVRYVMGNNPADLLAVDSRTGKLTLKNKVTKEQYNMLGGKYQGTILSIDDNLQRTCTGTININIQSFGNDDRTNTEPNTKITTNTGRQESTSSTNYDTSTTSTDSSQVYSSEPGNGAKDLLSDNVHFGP
In words: ELISA on recombinant human Dsg1-His. From the text:
(§1) The baculovirus vectors, pEVmod-Dsg3-His and pEVmod-Dsg1-His, pEVmod-mouse Dsg3-His and pEVmod-mouse Dsg1 -His, that were constructed according to the method as described previously (J. Immunol. 159, 2010-2017, 1997) were used. These recombinant baculoviruses were infected to insect cells, High Five (Invitrogen Corporation), then the recombinant protein human Dsg3-His and Dsg1-His, recombinant protein mouse Dsg3-His and Dsg1-His were collected from the culture media, respectively. In addition, purification of these recombinant proteins was conducted using Ni-NTA column. These purified recombinant proteins were coated on ELISA (Enzyme Linked Immunosorbent Assay) plates, respectively, 50 μl each of the culture supernatant of the anti-Dsg3 monoclonal antibody-producing hybridoma was added to each well, and ELISA was practiced according to the method as previously described (J Clin Invest 105, 625-631, 2000). PV mouse model 1 serum with moderate degree of antibody titer was selected as a positive control, and 1 serum of normal mouse serum was selected as a negative control. Absorbance was determined at wavelength 450 nm (Bio-rad, Hercules, Calif. USA), and the index was shown by the following formula. Index={OD(specimen)−OD(negative control)}/{OD(positive control)−OD(negative control)}×100 A-2 (Living Cell Staining using Culture Mouse Keratinocyte PAM 212)
In general terms: ELISA stands for enzyme-linked immunosorbent assay.

Assay [2] deals with T2, recombinant protein human Dsg3-His (human, UniProt P32926 50-615).
T2 construct: extracellular domain; Baculovirus product; also called recombinant human Dsg3; not shown: C-terminal His tag
T2 sequence (looked up): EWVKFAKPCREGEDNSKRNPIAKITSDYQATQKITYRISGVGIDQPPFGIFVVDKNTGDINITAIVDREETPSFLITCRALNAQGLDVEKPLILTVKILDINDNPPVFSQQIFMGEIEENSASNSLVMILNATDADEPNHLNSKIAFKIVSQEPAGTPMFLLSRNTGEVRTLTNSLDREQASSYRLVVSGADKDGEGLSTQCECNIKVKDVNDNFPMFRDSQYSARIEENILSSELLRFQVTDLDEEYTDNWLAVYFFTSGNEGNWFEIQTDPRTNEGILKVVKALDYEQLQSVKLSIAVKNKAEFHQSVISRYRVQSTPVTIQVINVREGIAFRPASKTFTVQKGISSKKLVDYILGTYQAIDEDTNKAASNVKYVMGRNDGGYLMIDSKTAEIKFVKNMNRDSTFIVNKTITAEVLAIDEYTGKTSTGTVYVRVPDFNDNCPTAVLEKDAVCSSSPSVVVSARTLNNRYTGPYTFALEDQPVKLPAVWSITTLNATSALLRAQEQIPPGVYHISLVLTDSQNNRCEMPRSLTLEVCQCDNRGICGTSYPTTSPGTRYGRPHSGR
In words: ELISA on recombinant human Dsg3-His.
Description: as §1

The target in assay [3] is T3, human Dsg3 in human skin or mucosa (human, UniProt P32926 50-999).
T3 construct: whole, on cells; also called human tissues
T3 sequence (looked up): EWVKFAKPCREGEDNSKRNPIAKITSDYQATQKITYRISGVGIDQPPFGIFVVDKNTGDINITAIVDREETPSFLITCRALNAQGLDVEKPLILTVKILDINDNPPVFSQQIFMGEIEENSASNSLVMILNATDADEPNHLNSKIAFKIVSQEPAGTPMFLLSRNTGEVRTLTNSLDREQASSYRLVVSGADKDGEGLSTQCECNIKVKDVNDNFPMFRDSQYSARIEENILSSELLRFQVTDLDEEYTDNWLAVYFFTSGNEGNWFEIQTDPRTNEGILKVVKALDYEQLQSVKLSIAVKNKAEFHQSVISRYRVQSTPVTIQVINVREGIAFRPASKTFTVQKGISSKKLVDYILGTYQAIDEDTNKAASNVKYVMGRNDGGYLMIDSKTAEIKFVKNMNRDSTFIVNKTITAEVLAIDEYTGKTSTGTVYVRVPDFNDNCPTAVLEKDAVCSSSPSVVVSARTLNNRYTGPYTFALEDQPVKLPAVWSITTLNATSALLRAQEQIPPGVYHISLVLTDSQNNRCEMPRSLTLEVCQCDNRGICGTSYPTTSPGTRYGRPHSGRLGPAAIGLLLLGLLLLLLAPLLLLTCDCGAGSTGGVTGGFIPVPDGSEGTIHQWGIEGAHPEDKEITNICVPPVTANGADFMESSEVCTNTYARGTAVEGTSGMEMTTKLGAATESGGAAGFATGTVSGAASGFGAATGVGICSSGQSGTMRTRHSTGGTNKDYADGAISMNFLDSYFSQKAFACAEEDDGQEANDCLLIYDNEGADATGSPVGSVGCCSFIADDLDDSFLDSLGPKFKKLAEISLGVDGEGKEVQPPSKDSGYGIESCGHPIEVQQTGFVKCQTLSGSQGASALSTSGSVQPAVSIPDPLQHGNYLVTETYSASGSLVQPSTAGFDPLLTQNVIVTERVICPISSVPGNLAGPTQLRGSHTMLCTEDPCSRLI
Briefly: indirect immunofluorescence on human skin sections. Here is the method:
A-5 (Indirect Immunofluorescence) C57B1/6J mouse hard palate, liver and human skin were embedded with OCT compound (SAKURA, USA), then froze and sectioned into 5 μm thickness, and constructed a substrate. After each of hybridoma culture supernatants were reacted for 1 hour at room temperature, they were washed with PBS (3 times), and reacted with ×100 diluted FITC labeled goat anti-mouse IgG (DAKO A/S, Glostrup, Denmark) for 1 hour at room temperature, they were washed with PBS (3 times), and microscopic examination was conducted using a fluorescence microscope.

B1: anti-Dsg3 monoclonal antibody AK23 (antibody, mouse IgG1, V domains shown)
VH: QVQLQQSGTELVKPGASVKLSCKSSGYTFTSYWINWVKQRPGQGLEWIGNINPSNGGINYNEKFKSKATLTVDKSSSTAYMQLKSLTSEDSAVYYCARGGYDGYPWGQGTTVTVS
VL: DIQMTQSPKFLLVSAGDRVTITCKASQSVSYDVAWYQQKPGQSPKLLISYASNRYTGVPDRFTGSGYGSDFTFTISTVQTEDLAVYFCQQDYSSPWTFGGGTKLELKR
notes: Mouse IgG1 kappa hybridoma antibody
As for B1, the binding result in assay [1] was “no binding”; in assay [2], “binds”; in assay [3], “binds”.
